This passage reports Kd results from paper PMC3086721 (Biochemical and biophysical research communications, 2011).

Like-named read-outs stand apart in the source and are kept apart here.

Test [1] addresses T1, Wild-type ubiquitin (UniProt P0CG48 1-76). Put plainly: NMR titration.
Test [2] has as its target T1, Wild-type ubiquitin. Description: NMR titration. The source holds these as a separate data set.

B1: Full-length E2-25K (enzyme, UniProt P61086 1-200, looked up)
chain: MANIAVQRIKREFKEVLKSEETSKNQIKVDLVDENFTELRGEIAGPPDTPYEGGRYQLEIKIPETYPFNPPKVRFITKIWHPNISSVTGAICLDILKDQWAAAMTLRTVLLSLQALLAAAEPDDPQDAVVANQYKQNPEMFKQTARLWAHVYAGAPVSSPEYTKKIENLCAMGFDRNAVIVALSSKSWDVETATELLLSN
Take B1: the Kd in test [1] was roughly 1000 µM.

For GAPVSSPEYTKKIENLCAMGFDRNAVIVALSSKSWDVETATELLLSN (domain or fragment, UniProt P61086 154-200, looked up) [E2-25K UBA domain (residues G154-N200)], the Kd in test [2] was roughly 1200 µM.

Broadly, the Kd is the free concentration of one partner at which half of the binding sites on the other are occupied at equilibrium, for simple one-to-one binding. Read a high Kd as lower affinity.
